Laboratory results reported in the supplement of paper PMC5998384.

Key:
HeLa Kyoto [1] = assay: solubility in G1/S (NP-40 vs SDS abundance) (log2 ratio); higher = more soluble; conditions: cell cycle stage: G1/S
HeLa Kyoto [2] = assay: solubility change mitosis vs G1/S (difference of NP-40 vs SDS log2 ratios) (log2 ratio difference); higher = more soluble in mitosis
HeLa Kyoto [3] = assay: thermal stability score vs G1/S (z-score of summed log2 fold changes over temperatures); higher = more thermally stable than in G1/S
HeLa Kyoto [4] = assay: melting temperature (median over replicates), in situ; higher = more thermally stable
[5] = cell cycle stage: early G1 (4.5 h after nocodazole release)
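Wherever melting temperature (median over replicates), in situ is given: HeLa Kyoto cells synchronized by double thymidine or nocodazole block, proteins quantified by TMT10plex mass spectrometry, three independent biological replicates.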
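Wherever solubility change mitosis vs G1/S (difference of NP-40 vs SDS log2 ratios) is given: synchronized HeLa Kyoto cells (double thymidine block for G1/S, nocodazole release for mitosis), protein amounts in NP-40 versus SDS lysates quantified by mass spectrometry, three biological replicates.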
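Wherever solubility in G1/S (NP-40 vs SDS abundance) is given: HeLa Kyoto cells arrested at G1/S by double thymidine block, proteins quantified by TMT10plex mass spectrometry in mild NP-40 versus SDS extracts, three biological replicates.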
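Wherever thermal stability score vs G1/S (z-score of summed log2 fold changes over temperatures) is given: synchronized HeLa Kyoto cells, proteins quantified by TMT10plex mass spectrometry, three biological replicates, mitosis taken 0.5 h after nocodazole release, G1/S directly after double thymidine block.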

Row | Sequence | solubility in G1/S (log2) (HeLa Kyoto [1]) | solubility change mitosis (log2) (HeLa Kyoto [2]) | thermal stability score (HeLa Kyoto [3]; [5]) | thermal stability score (HeLa Kyoto [3]; cell cycle stage: mitosis) | melting temperature (HeLa Kyoto [4]; cell cycle stage: G1/S) | melting temperature (HeLa Kyoto [4]; cell cycle stage: mitosis)
1 | MAGSEQQRPRRRDDGDSDAAAAAAAPLQDAELALAGINMLLNNGFRESDQLFKQYRNHSPLMSFGASFVSFLNAMMTFEEEKMQLACDDLKTTEKLCESEEAGVIETIKNKIKKNVDVRKSAPSMVDRLQRQIIIADCQVYLAVLSFVKQELSAYIKGGWILRKAWKIYNKCYLDINALQELYQKKLTEESLTSDAANDNHIVAEGVSEESLNRLKGAVSFGYGLFHLCISMVPPNLLKIINLLGFPGDRLQGLSSLMYASESKDMKAPLATLALLWYHTVVRPFFALDGSDNKAGLDEAKEILLKKEAAYPNSSLFMFFKGRIQRLECQINSALTSFHTALELAVDQREIQHVCLYEIGWCSMIELNFKDAFDSFERLKNESRWSQCYYAYLTAVCQGATGDVDGAQIVFKEVQKLFKRKNNQIEQFSVKKAERFRKQTPTKALCVLASIEVLYLWKALPNCSFPNLQRMSQACHEVDDSSVVGLKYLLLGAIHKCLGNSEDAVQYFQRAVKDELCRQNNLYVQPYACYELGCLLLDKPETVGRGRALLLQAKEDFSGYDFENRLHVRIHAALASLRELVPQ [TTC39C] | -0.0737 | -0.00412 | -1.01 | -2.55 | 53.6 °C | 52.6 °C
2 | MAGSRLPRQLFLQGVAAVFMFAFASLYTQIPGLYGPEGILPARRTLRPQGKGRWQQLWETPTLLWEAPRLGLDTAQGLELLSLLGALVALGALLLSPLRHPVIYLLLWAAYLSACQVGQVFLYFQWDSLLLETGFLAVLVAPLRPASHRKEAPQGRQAGALPHEDLPFWLVRWLLFRLMFASGVVKLTSRCPAWWGLTALTYHYETQCLPTPAAWFAHHLPVWLHKLSVVATFLIEIAVPPLFFAPIRRLRLAAFYSQVLLQVLIIITGNYNFFNLMTLVLTTALLDDQHLAAEPGHGSRKKTATSWPKALLATLSLLLELAVYGLLAYGTVHYFGLEVDWQQRTIHSRTTFTFHQFSQWLKTLTLPTVWLGVASLVWELLSALWRWTQVRGWLRKLSAVVQLSLVGTATVALFLISLVPYSYVEPGTHGRLWTGAHRLFGAVEHLQLANSYGLFRRMTGLGGRPEVVLEGSYDGHHWTEIEFMYKPGNLSRPPPVVVPHQPRLDWQMWFAALGPHTHSPWFTSLVLRLLQGKEPVIRLVQSQVARYPFHKQPPTYVRAQRYKYWFSQPGEQGQWWRRQWVEEFFPSVSLGDPTLETLLRQFGLQEKSPPRTRSANSTLAQALHWTRSQLSPLEAPALLWGLLMAVGAVRFVQALLAPCSLRSSPLAPVSGEKRRPASQKDSGAASEQATAAPNPCSSSSRTTRRKK [LMF2] | -0.171 | -0.0691 | -0.462 | -1.11 | 51.9 °C | 52.8 °C
3 | MAGSVADSDAVVKLDDGHLNNSLSSPVQADVYFPRLIVPFCGHIKGGMRPGKKVLVMGIVDLNPESFAISLTCGDSEDPPADVAIELKAVFTDRQLLRNSCISGERGEEQSAIPYFPFIPDQPFRVEILCEHPRFRVFVDGHQLFDFYHRIQTLSAIDTIKINGDLQITKLG [LGALSL] | 0.36 | -0.16 | 0.0977 | -0.222 | 53.3 °C | 54 °C
4 | MAGSYPEGAPAILADKRQQFGSRFLSDPARVFHHNAWDNVEWSEEQAAAAERKVQENSIQRVCQEKQVDYEINAHKYWNDFYKIHENGFFKDRHWLFTEFPELAPSQNQNHLKDWFLENKSEVCECRNNEDGPGLIMEEQHKCSSKSLEHKTQTPPVEENVTQKISDLEICADEFPGSSATYRILEVGCGVGNTVFPILQTNNDPGLFVYCCDFSSTAIELVQTNSEYDPSRCFAFVHDLCDEEKSYPVPKGSLDIIILIFVLSAVVPDKMQKAINRLSRLLKPGGMVLLRDYGRYDMAQLRFKKGQCLSGNFYVRGDGTRVYFFTQEELDTLFTTAGLEKVQNLVDRRLQVNRGKQLTMYRVWIQCKYCKPLLSSTS [METTL2B] | 0.19 | -0.231 | -0.391 | 1.29 | 48.6 °C | 48.9 °C
5 | MAGYKPVAIQTYPILGEKITQDTLYWNNYKTPVQIKEFGAVSKVDFSPQPPYNYAVTASSRIHIYGRYSQEPIKTFSRFKDTAYCATFRQDGRLLVAGSEDGGVQLFDISGRAPLRQFEGHTKAVHTVDFTADKYHVVSGADDYTVKLWDIPNSKEILTFKEHSDYVRCGCASKLNPDLFITGSYDHTVKMFDARTSESVLSVEHGQPVESVLLFPSGGLLVSAGGRYVKVWDMLKGGQLLVSLKNHHKTVTCLCLSSSGQRLLSGSLDRKVKVYSTTSYKVVHSFDYAASILSLALAHEDETIVVGMTNGILSVKHRKSEAKKESLPRRRRPAYRTFIKGKNYMKQRDDILINRPAKKHLELYDRDLKHFRISKALDRVLDPTCTIKTPEITVSIIKELNRRGVLANALAGRDEKEISHVLNFLIRNLSQPRFAPVLINAAEIIIDIYLPVIGQSPVVDKKFLLLQGLVEKEIDYQRELLETLGMMDMLFATMRRKEGTSVLEHTSDGFPENKKIES [UTP15] | -1.23 | 0.558 | -0.279 | -3.5 | 52.6 °C | 50.9 °C
6 | MAHAPARCPSARGSGDGEMGKPRNVALITGITGQDGSYLAEFLLEKGYEVHGIVRRSSSFNTGRIEHLYKNPQAHIEGNMKLHYGDLTDSTCLVKIINEVKPTEIYNLGAQSHVKISFDLAEYTADVDGVGTLRLLDAVKTCGLINSVKFYQASTSELYGKVQEIPQKETTPFYPRSPYGAAKLYAYWIVVNFREAYNLFAVNGILFNHESPRRGANFVTRKISRSVAKIYLGQLECFSLGNLDAKRDWGHAKDYVEAMWLMLQNDEPEDFVIATGEVHSVREFVEKSFLHIGKTIVWEGKNENEVGRCKETGKVHVTVDLKYYRPTEVDFLQGDCTKAKQKLNWKPRVAFDELVREMVHADVELMRTNPNA [GMDS] | -0.249 | -0.00656 | -0.0264 | -1.35 | 56.4 °C | 57.4 °C
7 | MAHCVTLVQLSISCDHLIDKDIGSKSDPLCVLLQDVGGGSWAELGRTERVRNCSSPEFSKTLQLEYRFETVQKLRFGIYDIDNKTPELRDDDFLGGAECSLGQIVSSQVLTLPLMLKPGKPAGRGTITVSAQELKDNRVVTMEVEARNLDKKDFLGKSDPFLEFFRQGDGKWHLVYRSEVIKNNLNPTWKRFSVPVQHFCGGNPSTPIQVQCSDYDSDGSHDLIGTFHTSLAQLQAVPAEFECIHPEKQQKKKSYKNSGTIRVKICRVETEYSFLDYVMGGCQINFTVGVDFTGSNGDPSSPDSLHYLSPTGVNEYLMALWSVGSVVQDYDSDKLFPAFGFGAQVPPDWQVSHEFALNFNPSNPYCAGIQGIVDAYRQALPQVRLYGPTNFAPIINHVARFAAQAAHQGTASQYFMLLLLTDGAVTDVEATREAVVRASNLPMSVIIVGVGGADFEAMEQLDADGGPLHTRSGQAAARDIVQFVPYRRFQNAPREALAQTVLAEVPTQLVSYFRAQGWAPLKPLPPSAKDPAQAPQA [CPNE1] | 0.146 | -0.134 | 0.0462 | 0.0377 | 52 °C | 51.9 °C
8 | MAHQTGIHATEELKEFFAKARAGSVRLIKVVIEDEQLVLGASQEPVGRWDQDYDRAVLPLLDAQQPCYLLYRLDSQNAQGFEWLFLAWSPDNSPVRLKMLYAATRATVKKEFGGGHIKDELFGTVKDDLSFAGYQKHLSSCAAPAPLTSAERELQQIRINEVKTEISVESKHQTLQGLAFPLQPEAQRALQQLKQKMVNYIQMKLDLERETIELVHTEPTDVAQLPSRVPRDAARYHFFLYKHTHEGDPLESVVFIYSMPGYKCSIKERMLYSSCKSRLLDSVEQDFHLEIAKKIEIGDGAELTAEFLYDEVHPKQHAFKQAFAKPKGPGGKRGHKRLIRGPGENGDDS [TWF2] | 0.275 | -0.23 | -0.101 | -1.11 | 53.6 °C | 53 °C
9 | MAHTTKVNGSASGKAGDILSGDQDKEQKDPYFVETPYGYQLDLDFLKYVDDIQKGNTIKRLNIQKRRKPSVPCPEPRTTSGQQGIWTSTESLSSSNSDDNKQCPNFLIARSQVTSTPISKPPPPLETSLPFLTIPENRQLPPPSPQLPKHNLHVTKTLMETRRRLEQERATMQMTPGEFRRPRLASFGGMGTTSSLPSFVGSGNHNPAKHQLQNGYQGNGDYGSYAPAAPTTSSMGSSIRHSPLSSGISTPVTNVSPMHLQHIREQMAIALKRLKELEEQVRTIPVLQVKISVLQEEKRQLVSQLKNQRAASQINVCGVRKRSYSAGNASQLEQLSRARRSGGELYIDYEEEEMETVEQSTQRIKEFRQLTADMQALEQKIQDSSCEASSELRENGECRSVAVGAEENMNDIVVYHRGSRSCKDAAVGTLVEMRNCGVSVTEAMLGVMTEADKEIELQQQTIESLKEKIYRLEVQLRETTHDREMTKLKQELQAAGSRKKVDKATMAQPLVFSKVVEAVVQTRDQMVGSHMDLVDTCVGTSVETNSVGISCQPECKNKVVGPELPMNWWIVKERVEMHDRCAGRSVEMCDKSVSVEVSVCETGSNTEESVNDLTLLKTNLNLKEVRSIGCGDCSVDVTVCSPKECASRGVNTEAVSQVEAAVMAVPRTADQDTSTDLEQVHQFTNTETATLIESCTNTCLSTLDKQTSTQTVETRTVAVGEGRVKDINSSTKTRSIGVGTLLSGHSGFDRPSAVKTKESGVGQININDNYLVGLKMRTIACGPPQLTVGLTASRRSVGVGDDPVGESLENPQPQAPLGMMTGLDHYIERIQKLLAEQQTLLAENYSELAEAFGEPHSQMGSLNSQLISTLSSINSVMKSASTEELRNPDFQKTSLGKITGNYLGYTCKCGGLQSGSPLSSQTSQPEQEVGTSEGKPISSLDAFPTQEGTLSPVNLTDDQIAAGLYACTNNESTLKSIMKKKDGNKDSNGAKKNLQFVGINGGYETTSSDDSSSDESSSSESDDECDVIEYPLEEEEEEEDEDTRGMAEGHHAVNIEGLKSARVEDEMQVQECEPEKVEIRERYELSEKMLSACNLLKNTINDPKALTSKDMRFCLNTLQHEWFRVSSQKSAIPAMVGDYIAAFEAISPDVLRYVINLADGNGNTALHYSVSHSNFEIVKLLLDADVCNVDHQNKAGYTPIMLAALAAVEAEKDMRIVEELFGCGDVNAKASQAGQTALMLAVSHGRIDMVKGLLACGADVNIQDDEGSTALMCASEHGHVEIVKLLLAQPGCNGHLEDNDGSTALSIALEAGHKDIAVLLYAHVNFAKAQSPGTPRLGRKTSPGPTHRGSFD [KANK1] | -0.0496 | -0.0616 | 0.397 | 2.14 | 49.3 °C | 49.4 °C
10 | MAIPGRQYGLILPKKTQQLHPVLQKPSVFGNDSDDDDETSVSESLQREAAKKQAMKQTKLEIQKALAEDATVYEYDSIYDEMQKKKEENNPKLLLGKDRKPKYIHNLLKAVEIRKKEQEKRMEKKIQREREMEKGEFDDKEAFVTSAYKKKLQERAEEEEREKRAAALEACLDVTKQKDLSGFYRHLLNQAVGEEEVPKCSFREARSGIKEEKSRGFSNEVSSKNRIPQEKCILQTDVKVEENPDADSDFDAKSSADDEIEETRVNCRREKVIETPENDFKHHRSQNHSRSPSEERGHSTRHHTKGSRTSRGHEKREDQHQQKQSRDQENHYTDRDYRKERDSHRHREASHRDSHWKRHEQEDKPRARDQRERSDRVWKREKDREKYSQREQERDRQQNDQNRPSEKGEKEEKSKAKEEHMKVRKERYENNDKYRDREKREVGVQSSERNQDRKESSPNSRAKDKFLDQERSNKMRNMAKDKERNQEKPSNSESSLGAKHRLTEEGQEKGKEQERPPEAVSKFAKRNNEETVMSARDRYLARQMARVNAKTYIEKEDD [NSRP1] | -0.433 | 0.242 | 0.0783 | -1.16 | 55.3 °C | 55.6 °C
11 | MAIRKKSTKSPPVLSHEFVLQNHADIVSCVAMVFLLGLMFEITAKASIIFVTLQYNVTLPATEEQATESVSLYYYGIKDLATVFFYMLVAIIIHAVIQEYMLDKINRRMHFSKTKHSKFNESGQLSAFYLFACVWGTFILISENYISDPTILWRAYPHNLMTFQMKFFYISQLAYWLHAFPELYFQKTKKEDIPRQLVYIGLYLFHIAGAYLLNLNHLGLVLLVLHYFVEFLFHISRLFYFSNEKYQKGFSLWAVLFVLGRLLTLILSVLTVGFGLARAENQKLDFSTGNFNVLAVRIAVLASICVTQAFMMWKFINFQLRRWREHSAFQAPAVKKKPTVTKGRSSKKGTENGVNGTLTSNVADSPRNKKEKSS [TRAM1] | -0.0229 | -0.0373 | -0.164 | -0.999 | 52.2 °C | 52.6 °C
